In patent US20220135652A1 (FERRING B V, published 2022):

Target: T1, IL-6/sIL-6R complex (human, UniProt P05231 30-212; P08887 20-355, limits assumed)
T1 construct: Complex of IL-6 and soluble IL-6R; also called IL-6/sIL-6R trans-signalling complex
Assay: method not stated; value given in Example 4 and used to calculate occupancy

B1: Peptide 1 (the polypeptide of SEQ ID NO: 1 in its active dimerized form) (Fc fusion)
chain: ELLDPCGYISPESPVVQLHSNFTAVCVLKEKCMDYFHVNANYIVWKTNHFTIPKEQYTIINRTASSVTFTDIASLNIQLTCNILTFGQLEQNVYGITIISGLPPEKPKNLSCIVNEGKKMRCEWDGGRETHLETNFTLKSEWATHKFADCKAKRDTPTSCTVDYSTVYFVNIEVWVEAENALGKVTSDHINFDPVYKVKPNPPHNLSVINSEELSSILKLTWTNPSIKSVIILKYNIQYRTKDASTWSQIPPEDTASTRSSFTVQDLKPFTEYVFRIRCMKEDGKGYWSDWSEEASGITYEDRPSKAPSFWYKIDPSHTQGYRTVQLVWKTLPPFEANGKILDYEVTLTRWKSHLQNYTVNATKLTVNLTNDRYLATLTVRNLVGKSDAAVLTIPACDFQATHPVMDLKAFPKDNMLWVEWTTPRESVKKYILEWCVLSDKAPCITDWQQEDGTVHRTYLRGNLAESKCYLITVTPVYADGPGSPESIKAYLKQAPPSKGPTVRTKKVGKNEAVLEWDQLPVDVQNGFIRNYTIFYRTIIGNETAVNVDSSHTEYTLSSLTSDTLYMVRMAAYTDEGGKDGPEFTFTTPKFAQGEDKTHTCPPCPAPEAEGAPSVFLFPPKPKDTLMISRTPEVTCVVVDVSHEDPEVKFNWYVDGVEVHNAKTKPREEQYNSTYRVVSVLTVLHQDWLNGKEYKCKVSNKALPAPIEKTISKAKGQPREPQVYTLPPSREEMTKNQVSLTCLVKGFYPSDIAVEWESNGQPENNYKTTPPVLDSDGSFFLYSKLTVDKSRWQQGNVFSCSVMHEALHNHYTQKSLSLSPGK
notes: Produced in CHO/dhfr- cells; 10 N-glycosylation sites per chain; also called gp130-Fc fusion dimer
For B1, which Kd is on record?
Its Kd is 0.13 nM.
